The supplement of paper PMC9732359
± gives the uncertainty stated by the source.

Test: protein stability index of a GFP-peptide fusion (yeast GPS) (PSI 1-4); higher = more stable; sorted into four equal gates, so the index is relative within each strain
Method in brief: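 The protein stability index of a peptide was calculated by multiplying its read frequency in each gate by that gate's number and adding the products. The peptides were tiled 17-residue stretches of yeast proteins, fused downstream of GFP on a Cherry-expressing plasmid and carried in yeast as a pooled library. Mid-log cultures in leucine-free medium were sorted into four equal gates by GFP/Cherry ratio, and each gate's plasmids were PCR-amplified and Illumina-sequenced.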

Row | Sequence | protein stability index (pdr5∆) | protein stability index (doa10∆) | protein stability index (san1∆) | protein stability index (ubr1∆)
1 | LSSAGKNSSVSSLMNGL [SRB5] | 1.24 ± 0.11 | – | – | –
2 | MSDLFTFDWFIKTRTVH [ISW2] | 3.17 ± 0.099 | 2.88 ± 0.099 | 2.76 ± 0.093 | 3.21 ± 0.072
3 | VAALVSLTEKFSQTVAD [ECM29] | 1.61 ± 0.059 | 2.77 ± 0.08 | 1.8 ± 0.14 | 1.67 ± 0.085
4 | SLTKDKSIRKDTVEEKK [SIR4] | 3.23 ± 0.062 | 3.03 ± 0.064 | 3.1 ± 0.056 | 3.12 ± 0.069
5 | NSDKPRDVYVFDKVEVQ [DIS3] | 2.93 ± 0.066 | 2.96 ± 0.058 | 3.1 ± 0.056 | 3 ± 0.059
6 | DDDKKPDDDKIVPLTEG [RPT1] | 3.29 ± 0.11 | 3 ± 0.13 | 3.16 ± 0.12 | 3.32 ± 0.064
7 | ENEMIKPMNKGQHKNNT [SWP82] | 3.19 ± 0.12 | 3.36 ± 0.081 | 3.33 ± 0.09 | 3.26 ± 0.049
8 | EKYEDEDEEKILDNTEN [DSN1] | 3.16 ± 0.1 | 3.52 ± 0.15 | 3.01 ± 0.26 | 3.21 ± 0.091
9 | SLSYMAFPNASKKNRPT [RRP40] | 2.89 ± 0.15 | 2.2 ± 0.22 | – | 2.9 ± 0.14
10 | LQVADKFFRVKYENKIS [SMC3] | 2.3 ± 0.05 | 2.14 ± 0.073 | 1.67 ± 0.092 | 1.52 ± 0.03
11 | KAEFSKEMTLQKNMNDL [YIL149C/MLP2] | 3.3 ± 0.086 | 3.21 ± 0.053 | 3.23 ± 0.09 | 3.07 ± 0.067
12 | VLRLATNKGPLAQIWLA [MCD1] | 1.31 ± 0.052 | 1.93 ± 0.11 | 1.51 ± 0.15 | 1.17 ± 0.055
13 | LESDFVTGASQFQRLAP [PRE2] | 2.97 ± 0.11 | 2.88 ± 0.094 | 3.17 ± 0.086 | 2.87 ± 0.067
14 | LEKTSRILNFFDKNTKT [YMR153W/NUP53] | 3.09 ± 0.087 | 2.59 ± 0.08 | 2.75 ± 0.089 | 2.7 ± 0.052
15 | KNTELSYDFLPLSNIKA [RPN12] | 2.85 ± 0.074 | 3.13 ± 0.075 | 3.08 ± 0.086 | 3.09 ± 0.068
16 | IKNIGKSLKNNFYRPLL [YML103C/NUP188] | 2.62 ± 0.1 | 2.6 ± 0.08 | 2.7 ± 0.079 | 2.77 ± 0.078
17 | VFNDAHVLNKVTLASIL [RPN1] | 2.09 ± 0.065 | 2.21 ± 0.091 | 2.45 ± 0.096 | 2.03 ± 0.05
18 | PRMIELMEFLCVVSTDS [ECM29] | 1.66 ± 0.066 | 2.04 ± 0.064 | 1.64 ± 0.1 | 1.4 ± 0.054
19 | ECYKQLFLTAPDSCNMQ [YCS4] | 2.21 ± 0.16 | 2.42 ± 0.11 | 2.85 ± 0.12 | 2.5 ± 0.083
20 | RIGKHRKHPGGRGMAGG [RPL28] | 2.63 ± 0.24 | 2.92 ± 0.12 | 2.97 ± 0.1 | 3.22 ± 0.16
21 | AEASFTFGTKHAADSQN [YLR335W/NUP2] | 3.01 ± 0.13 | 3.27 ± 0.14 | 3.03 ± 0.092 | 2.67 ± 0.091
22 | PKFFLGEENRVRFIGDS [QCR2] | 3.15 ± 0.11 | 3.17 ± 0.1 | 3.07 ± 0.073 | 3.2 ± 0.069
23 | VSNPGDNPPPADNGEEY [MED2] | 2.86 ± 0.1 | 3.14 ± 0.071 | 3.13 ± 0.074 | 3.29 ± 0.11
24 | DFREKALYIAMMTRRVV [RET1] | 1.58 ± 0.12 | 1.18 ± 0.077 | – | 1.37 ± 0.074
25 | QVPLQQTQAIAQQQQLS [YGR119C/NUP57] | 2.41 ± 0.076 | 2.14 ± 0.08 | 2.15 ± 0.077 | 2.29 ± 0.06
26 | PSKKLKTEDGFVIPALP [RPC82] | 3.19 ± 0.089 | 3.08 ± 0.13 | 2.93 ± 0.083 | 3.08 ± 0.065

Row | Sequence | protein stability index (pdr5∆) | protein stability index (doa10∆) | protein stability index (san1∆) | protein stability index (ubr1∆)
27 | KVQDAIEEEIFDDSSRI [LIN1] | 3.19 ± 0.11 | 3.07 ± 0.1 | 3.16 ± 0.081 | 3.06 ± 0.069
28 | EIQEELERFNKRADISK [SMC1] | – | – | – | 3.23 ± 0.18
29 | ADTGRDDTKETVYISSI [RPN11] | 3.28 ± 0.1 | 3.12 ± 0.09 | 3.01 ± 0.073 | 3.16 ± 0.053
30 | KIKFDESSKLMTVTKVS [BRR2] | 1.36 ± 0.078 | 1.75 ± 0.099 | 1.5 ± 0.2 | 1.35 ± 0.05
31 | DLKSKGLIPADATFAGH [FAS1] | 3.01 ± 0.074 | 3.04 ± 0.092 | 3.07 ± 0.12 | 2.98 ± 0.065
32 | KNVRTRIKLATTSERVS [RRI1] | 2.56 ± 0.058 | 2.6 ± 0.058 | 2.8 ± 0.086 | 2.36 ± 0.074
33 | LRDTFIELDQVLNMLYW [RPO21] | 2.51 ± 0.058 | 2.19 ± 0.1 | 2.4 ± 0.07 | 2.27 ± 0.06
34 | SSLSAIIVFGYPESISN [YDL088C/ASM4] | 1.88 ± 0.046 | 1.75 ± 0.067 | 2.16 ± 0.086 | 2.01 ± 0.062
35 | PKSKSLPNEMSQNDGFV [RPO31] | 3.14 ± 0.14 | 3 ± 0.2 | 3.38 ± 0.12 | 3.36 ± 0.11
36 | KTDPAGYYVGYKATATG [SCL1] | 3.24 ± 0.065 | 2.98 ± 0.08 | 3.21 ± 0.065 | 3.25 ± 0.1
37 | KNVNIEDITEPKPDKPS [ESC2] | 3.1 ± 0.099 | 2.96 ± 0.094 | 2.51 ± 0.1 | 2.94 ± 0.13
38 | PEEEAAIRRENEWAEDR [SKP1] | 3.15 ± 0.082 | 3.09 ± 0.1 | 3.34 ± 0.05 | 3.28 ± 0.1
39 | LHVVITLLREVVFTRLV [CSN12] | 1.26 ± 0.047 | 1.26 ± 0.052 | 1.14 ± 0.14 | 1.37 ± 0.083
40 | GQNCLDIDGIMDNPRKL [SNU114] | 3.43 ± 0.27 | – | 3.4 ± 0.092 | 3.81 ± 0.27
41 | LLLKLASPHASVRTAVF [ECM29] | 1.87 ± 0.043 | 1.88 ± 0.048 | 1.57 ± 0.063 | 1.49 ± 0.029
42 | YDIDEIDHSDESNRQSV [ESC2] | 3.35 ± 0.096 | 3.19 ± 0.14 | 3.23 ± 0.13 | 3.84 ± 0.25
43 | DFDLLNKTLTFETETEV [FAS1] | 3.37 ± 0.067 | 3.34 ± 0.079 | 3.44 ± 0.045 | 3.3 ± 0.051
44 | ELPKKLLNLPPFQVSSF [SRB8] | 1.85 ± 0.034 | 1.77 ± 0.039 | 1.9 ± 0.055 | 1.78 ± 0.041
45 | AFHNNLKFLYLLDAYSH [MED1] | 1.25 ± 0.049 | 1.16 ± 0.07 | 1.16 ± 0.1 | 1.26 ± 0.042
46 | STSYAIKKKDELERVAK [RPS5] | 3.52 ± 0.11 | 3.44 ± 0.084 | 3.33 ± 0.061 | 3.35 ± 0.081
47 | QFVETIVSKSIEMYVQE [RPN2] | – | 1.51 ± 0.13 | 1.05 ± 0.11 | 1.15 ± 0.2
48 | NDKSEVLKVYSMINNSN [SRB8] | 2.91 ± 0.07 | 2.9 ± 0.077 | 2.86 ± 0.075 | 2.63 ± 0.071
49 | MASYMLNSFAFELCSLG [YJR042W/NUP85] | 1.51 ± 0.16 | 1.29 ± 0.17 | – | 1.5 ± 0.23
50 | DLKEGLQDLSRYSRQFI [GRR1] | 2.24 ± 0.058 | 3.07 ± 0.062 | 3.02 ± 0.038 | 3.29 ± 0.035
51 | KQLVEKAELRLAIADSP [ECM29] | 3.38 ± 0.29 | – | – | 3.29 ± 0.16
52 | DLVLQILEDTATMSVFL [RRI2] | 2.36 ± 0.055 | 2.86 ± 0.063 | 2.98 ± 0.054 | 2.71 ± 0.038
